According to US20260234276A1 (DOMAIN THERAPEUTICS, published 2026):
“And” between values parts separate entries of the source, which are not always exact repeats. Identical values can stand only once.

Tests used:
[1] = molecular target: T1, human CCR8 (human, UniProt P51685 1-355); test: cell-based or functional assay
[2] = molecular target: T1, human CCR8; test: cell-based or functional assay; remark: listed apart in the source
[3] = molecular target: T1, human CCR8; test: flow cytometry, hCCR8 transfected CHOK1 cells
[4] = molecular target: pm8 (human, sulfated tyrosines at Y15, Y16 and Y17); test: ELISA on coated peptide [cont.]
pm8 (human, sulfated tyrosines at Y15, Y16 and Y17), sequence (peptide, as listed by the source): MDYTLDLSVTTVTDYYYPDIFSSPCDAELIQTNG
In short: (§1)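 Binding is scored by optical density: plates carry 500 ng/mL peptide in carbonate/bicarbonate buffer, receive mAb at 1 μg/mL or diluted 1/10 for 90 min at room temperature, then TMB for 15 min.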

[5] = molecular target: pm5 (human, sulfated tyrosines at Y15 and Y17); test: ELISA on coated peptide [cont.]
pm5 (human, sulfated tyrosines at Y15 and Y17), sequence (peptide, as listed by the source): as above
In short: as §1

[6] = molecular target: pm3 (human, sulfated tyrosine at Y17); test: ELISA on coated peptide [cont.]
pm3 (human, sulfated tyrosine at Y17), sequence (peptide, as listed by the source): as above
In short: as §1

[7] = molecular target: pm6 (human, sulfated tyrosines at Y16 and Y17); test: ELISA on coated peptide [cont.]
pm6 (human, sulfated tyrosines at Y16 and Y17), sequence (peptide, as listed by the source): as above
In short: as §1

[8] = molecular target: T1, human CCR8; test: cell-based or functional assay; remark: listed apart in the source
[9] = molecular target: T1, human CCR8; test: competition flow cytometry on hCCR8 transfected CHO cells; blocked ligand CCL1-AF647 [cont.]

B1: 3-46 (antibody, V domains shown)
VH: EVQLVETGGGLVQPKGSLKLSCAASGFTFNTNAMNWVRQAPGKGLEWVARIRSKSNYYATYYADSVKDRFTISRDDSQSMLYLQMNNLKTEDTAMYYCVRGREMGNYYSMDYWGQGTSVTVSS
VL: DIVMTQAAPSVPVTPGESVSISCRSSKSLLHSNGNTYLYWFLQRPGQSPQLLIYRMSNLASGVPDRFSGSGSGTAFTLRISRVEAEDVGVYYCMQHLEYPFTFGSGTKLEIK
IC50 (Gi2 BRET, pH 6.5) [1]: 0.019 µg/ml and 0.125 nM | IC50 (Gi2 BRET, pH 7.4) [1]: 0.011 µg/ml and 0.075 nM | Top plateau value (% of hCCL1 100 nM) with 5 µg/mL mAb, Protocol #3 [2]: 149% | % positive cells [3]: 64.7% | MFI fold change to isotype ctrl [3]: 5.63 fold | binding result [4]: binds | binding result [5]: binds | binding result [6]: binds | binding result [7]: binds | hCCL1 (100 nM) residual response, Protocol #2, mAb 0.08 µg/mL [8]: 60% | hCCL1 (100 nM) residual response, Protocol #2, mAb 0.4 µg/mL [8]: 35% | hCCL1 (100 nM) residual response, Protocol #2, mAb 10 µg/mL [8]: 21% | hCCL1 (100 nM) residual response, Protocol #3, mAb 0.05 µg/mL [8]: 69% | hCCL1 (100 nM) residual response, Protocol #3, mAb 0.5 µg/mL [8]: 39% | hCCL1 (100 nM) residual response, Protocol #3, mAb 5 µg/mL [8]: 38% | IC50 (read off the curve) [9]: ~0.3 µg/mL
